Experimental data published in paper PMC9728937.

Molecular target: FgSnt1^1-744-GST (Fusarium graminearum)
Experiment: ITC
Settings: enzyme

With Cpk1-HIS the Kd was 0.248 µM.
